Data as given in the supplement of paper PMC10126150.
± gives the standard deviation of the averaged measurements.

Each sequence was assayed on ATP (assay: switch fluorescence ratio, 500 uM ATP over buffer (Cy3 cluster intensity, sum of 5 cycles each) (fold (ratio)); higher = stronger signal-on switching upon ATP binding; sequences stand for … in TCGTCGGCAGCGTCAGATGTGTATAAGAGACAGTTTTTTTTTTTTTTTTTTTTTTTTT…TC). Details: aptamer strand: ATP DNA aptamer (quencher-CACCTGGGGGAGTATTGCGGAGGAAGG + anchor), 100 nM annealed; ATP concentration: 500 uM.
Outline: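 Exposure to 500 uM ATP lasted 15 min at 22 °C before imaging, and a selection-buffer image was taken beforehand, for Cy3-labelled switching-strand clusters on a modified Illumina MiSeq flow-cell annealed to 100 nM quencher-labelled ATP aptamer. Five buffer/ATP cycles were run with NaOH stripping and re-annealing between them. The fluorescence ratio per cluster is summed target-cycle over summed buffer-cycle Cy3 intensity, averaged per switch-domain sequence. Clusters outside 100-1000 RFU were excluded.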

Sequence | switch fluorescence ratio
TATAATGGCT | 0.9555 ± 0.0054
TATAATGGGC | 0.965 ± 0.031
TATAATGTGC | 1.04 ± 0.012
TATAATTCTA | 0.9844 ± 0.0075
TATAATTCTG | 1.04 ± 0.029
TATACGCGCC | 1.12 ± 0.083
TATACGGAAT | 1.16 ± 0.051
TATACGGGTG | 1.073 ± 0.0046
TATACGTCTA | 1.07 ± 0.043
TATACGTGCC | 1.03 ± 0.025
TATACTACGG | 1.09 ± 0.024
TATACTTGGC | 1.07 ± 0.059
TATAGCATGT | 1.038 ± 0.007
TATAGCGCTT | 0.9905 ± 0.0035
TATAGCTAAT | 1.027 ± 0.0041
TATAGGAAAA | 1.35 ± 0.61
TATAGGATTT | 1 ± 0.08
TATAGGGAGG | 0.988 ± 0.027
TATAGGGGGG | 1 ± 0.017
TATAGGTTTT | 1 ± 0.081
TATAGTACGG | 1.049 ± 0.0095
TATAGTGGTC | 0.971 ± 0.035
TATAGTTGTT | 0.992 ± 0.018
TATATACTGT | 1.02 ± 0.03
TATATCAGGT | 1.018 ± 0.0066

Sequence | switch fluorescence ratio
TATATCGGGG | 0.992 ± 0.03
TATATCGGGT | 0.9968 ± 0.0072
TATATCTTTT | 1.04 ± 0.026
TATATGAGAC | 1.003 ± 0.0083
TATATGAGGG | 1 ± 0.057
TATATGATGA | 0.996 ± 0.015
TATATGATTA | 0.973 ± 0.016
TATATGCCGT | 1.02 ± 0.066
TATATGGGAA | 0.998 ± 0.029
TATATGGGGG | 0.981 ± 0.026
TATATGGTCC | 0.9841 ± 0.0083
TATATGTAAT | 1.01 ± 0.038
TATATTAAAG | 0.976 ± 0.015
TATATTACCA | 1.01 ± 0.051
TATATTCAGT | 1.02 ± 0.0099
TATATTGGGG | 0.991 ± 0.018
TATATTTCTG | 0.986 ± 0.019
TATATTTGTA | 0.979 ± 0.024
TATCACTTCC | 1.96 ± 0.023
TATCAGCATG | 1.01 ± 0.033
TATCAGTTGT | 1.03 ± 0.013
TATCATGAG | 1 ± 0.033
TATCCAAGTT | 0.999 ± 0.013
TATCCGTGGG | 0.973 ± 0.051
TATCCTTAGG | 1.01 ± 0.059

Sequence | switch fluorescence ratio
TATCCTTTGT | 1.22 ± 0.2
TATCGAAAAA | 0.967 ± 0.054
TATCGAAATT | 0.981 ± 0.021
TATCGATGTT | 1.005 ± 0.0099
TATCGGACTG | 1.01 ± 0.13
TATCGGATAA | 0.9947 ± 0.0037
TATCGGGACT | 0.9751 ± 0.006
TATCGGGTCG | 1.12 ± 0.13
TATCGGTCTT | 0.9224 ± 0.0088
TATCGGTTGG | 1.044 ± 0.0086
TATCGGTTGT | 1.03 ± 0.015
TATCGTTGTT | 1 ± 0.021
TATCTACTGG | 1.0076 ± 0.00035
TATCTATGGG | 0.983 ± 0.047
TATCTATGTA | 1.01 ± 0.02
TATCTGGGGT | 1.02 ± 0.025
TATCTGGGTA | 0.978 ± 0.01
TATCTGTTGT | 0.967 ± 0.033
TATCTTATTT | 0.9874 ± 0.0093
TATCTTTTTT | 0.98 ± 0.024
TATGAAATGT | 1.01 ± 0.033
TATGAAGACG | 1.12 ± 0.064
TATGAAGAGG | 0.994 ± 0.033
TATGAAGCCC | 1.02 ± 0.039
TATGAATCCG | 1 ± 0.063

Sequence | switch fluorescence ratio
TATGACATTA | 1.025 ± 0.0026
TATGACGACG | 1.04 ± 0.045
TATGACGGGG | 0.962 ± 0.014
TATGACTTTG | 1.03 ± 0.071
TATGAGATAG | 0.982 ± 0.021
TATGAGATTT | 0.955 ± 0.026
TATGAGGATC | 1.01 ± 0.039
TATGAGGATT | 0.9749 ± 0.0023
TATGAGGGCT | 1.04 ± 0.012
TATGAGTCGA | 1 ± 0.019
TATGATCTGT | 0.979 ± 0.021
TATGATGGGG | 0.963 ± 0.035
TATGATTTGG | 0.976 ± 0.031
TATGCAGGGA | 1.16 ± 0.29
TATGCATGTG | 0.996 ± 0.015
TATGCCATTT | 1.0337 ± 0.00046
TATGCGGCTT | 0.988 ± 0.04
TATGCGGGGG | 1.02 ± 0.046
TATGGAATGG | 0.997 ± 0.046
TATGGACTGT | 1.021 ± 0.01
TATGGAGCCA | 1.02 ± 0.032
TATGGAGGAT | 1.09 ± 0.13
TATGGATAGG | 0.996 ± 0.014
TATGGCCGTG | 0.998 ± 0.061
TATGGGAATG | 1.019 ± 0.0021
